Assay results published in article PMC10397247.

Columns and labels:
Assay in all cases: two-hybrid library CCNG1;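 note: natural log of median RNA to DNA barcode read ratio; higher means stronger binding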
[1] = molecular target: T1, O13-bA
T1 chain: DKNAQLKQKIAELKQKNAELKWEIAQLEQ

[2] = molecular target: T2, O2-bA
T2 chain: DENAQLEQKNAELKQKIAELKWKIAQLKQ

[3] = molecular target: T3, O15-bA
T3 chain: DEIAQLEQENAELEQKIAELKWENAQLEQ

[4] = molecular target: T4, O12-bA
T4 chain: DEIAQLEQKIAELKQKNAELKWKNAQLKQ

[5] = molecular target: T5, O9-bA
T5 chain: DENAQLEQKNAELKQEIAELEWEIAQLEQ

[6] = molecular target: T6, O8-bA
T6 chain: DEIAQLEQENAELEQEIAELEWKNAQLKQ

[7] = molecular target: T7, O6-bA
T7 chain: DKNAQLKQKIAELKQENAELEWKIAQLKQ

[8] = molecular target: T8, O14-bA
T8 chain: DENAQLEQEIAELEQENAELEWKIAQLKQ

[9] = molecular target: T9, O7-bA
T9 chain: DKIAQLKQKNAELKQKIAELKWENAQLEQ

[10] = molecular target: T10, O3-bA
T10 chain: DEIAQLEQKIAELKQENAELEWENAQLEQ

[11] = molecular target: T11, O4-bA
T11 chain: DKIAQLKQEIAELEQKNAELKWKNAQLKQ

[12] = molecular target: T12, O5-bA
T12 chain: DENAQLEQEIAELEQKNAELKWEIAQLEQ

[13] = molecular target: T13, O16-bA
T13 chain: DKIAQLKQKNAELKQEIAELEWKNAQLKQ

[14] = molecular target: T14, O11-bA
T14 chain: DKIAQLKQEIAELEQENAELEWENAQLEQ

[15] = molecular target: T15, P3A
T15 chain: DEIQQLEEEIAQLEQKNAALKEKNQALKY

[16] = molecular target: T16, P9A
T16 chain: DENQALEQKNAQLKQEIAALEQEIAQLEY

[17] = molecular target: T17, P5A
T17 chain: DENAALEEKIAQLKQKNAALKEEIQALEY

[18] = molecular target: T18, P4A
T18 chain: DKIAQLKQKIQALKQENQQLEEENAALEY

[19] = molecular target: T19, P7A
T19 chain: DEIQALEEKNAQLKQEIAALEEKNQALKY

[20] = molecular target: T20, P8A
T20 chain: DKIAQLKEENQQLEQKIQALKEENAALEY

[21] = molecular target: T21, P6A
T21 chain: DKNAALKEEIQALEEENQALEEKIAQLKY

[22] = molecular target: T22, P2A
T22 chain: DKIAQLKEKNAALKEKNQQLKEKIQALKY

[23] = molecular target: T23, P1A
T23 chain: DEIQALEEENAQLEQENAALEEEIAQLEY

[24] = molecular target: T24, 4H2518-bN
T24 chain: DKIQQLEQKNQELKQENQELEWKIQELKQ

[25] = molecular target: T25, 4H3354-bN
T25 chain: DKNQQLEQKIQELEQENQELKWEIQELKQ

[26] = molecular target: T26, O11-bN
T26 chain: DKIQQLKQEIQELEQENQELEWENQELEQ

[27] = molecular target: T27, 4H477-bN
T27 chain: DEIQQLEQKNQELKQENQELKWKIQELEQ

[28] = molecular target: T28, 4H2233-bN
T28 chain: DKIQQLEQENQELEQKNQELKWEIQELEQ

[29] = molecular target: T29, 4H932-bN
T29 chain: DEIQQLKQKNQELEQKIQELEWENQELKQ

[30] = molecular target: T30, 4H319-bN
T30 chain: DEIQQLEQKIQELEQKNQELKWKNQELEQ

[31] = molecular target: T31, 4H2717-bN
T31 chain: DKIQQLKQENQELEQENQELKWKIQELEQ

[32] = molecular target: T32, 4H2473-bN
T32 chain: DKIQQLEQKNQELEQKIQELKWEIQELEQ

[33] = molecular target: T33, 4H2839-bN
T33 chain: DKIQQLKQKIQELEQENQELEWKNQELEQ

[34] = molecular target: T34, 4H3364-bN
T34 chain: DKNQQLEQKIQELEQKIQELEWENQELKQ

[35] = molecular target: T35, 4H754-bA
T35 chain: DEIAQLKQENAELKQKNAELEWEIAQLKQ

[36] = molecular target: T36, 4H2438-bN
T36 chain: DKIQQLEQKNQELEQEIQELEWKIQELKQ

[37] = molecular target: T37, 4H949-bN
T37 chain: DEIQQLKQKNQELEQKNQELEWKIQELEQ

[38] = molecular target: T38, 4H3041-bN
T38 chain: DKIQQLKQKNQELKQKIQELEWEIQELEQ

[39] = molecular target: T39, 4H2503-bN
T39 chain: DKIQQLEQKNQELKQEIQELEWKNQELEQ

[40] = molecular target: T40, 4H2588-bN
T40 chain: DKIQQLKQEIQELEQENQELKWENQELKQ

[41] = molecular target: T41, 4H2162-bN
T41 chain: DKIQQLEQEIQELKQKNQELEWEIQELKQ

[42] = molecular target: T42, 4H492-bN
T42 chain: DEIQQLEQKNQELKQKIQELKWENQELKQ

[43] = molecular target: T43, 4H235-bN
T43 chain: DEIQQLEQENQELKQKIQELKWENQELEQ

[44] = molecular target: T44, 4H2253-bN
T44 chain: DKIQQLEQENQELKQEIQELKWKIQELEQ

[45] = molecular target: T45, 4H348-bN
T45 chain: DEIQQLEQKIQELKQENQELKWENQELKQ

[46] = molecular target: T46, 4H349-bN
T46 chain: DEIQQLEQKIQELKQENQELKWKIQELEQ

[47] = molecular target: T47, 4H3277-bN
T47 chain: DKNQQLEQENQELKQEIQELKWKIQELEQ

[48] = molecular target: T48, 4H730-bN
T48 chain: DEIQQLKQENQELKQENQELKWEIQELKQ

[49] = molecular target: T49, 4H2444-bN
T49 chain: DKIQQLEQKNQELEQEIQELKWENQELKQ

[50] = molecular target: T50, 4H40-bN
T50 chain: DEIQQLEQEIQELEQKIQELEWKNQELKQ

[51] = molecular target: T51, 4H264-bN
T51 chain: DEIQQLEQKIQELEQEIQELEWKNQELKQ

[52] = molecular target: T52, 4H3057-bN
T52 chain: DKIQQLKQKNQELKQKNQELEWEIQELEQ

[53] = molecular target: T53, 4H741-bN
T53 chain: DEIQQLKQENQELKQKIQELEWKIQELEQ

[54] = molecular target: T54, 4H2915-bN
T54 chain: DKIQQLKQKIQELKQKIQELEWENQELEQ

[55] = molecular target: T55, 4H570-bN
T55 chain: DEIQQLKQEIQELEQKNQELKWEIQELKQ

[56] = molecular target: T56, 4H2692-bN
T56 chain: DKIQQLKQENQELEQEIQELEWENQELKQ

[57] = molecular target: T57, 4H56-bN
T57 chain: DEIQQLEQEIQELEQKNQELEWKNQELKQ

[58] = molecular target: T58, 4H2859-bN
T58 chain: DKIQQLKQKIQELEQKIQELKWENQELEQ

[59] = molecular target: T59, 4H796-bN
T59 chain: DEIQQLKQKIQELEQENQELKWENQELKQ

[60] = molecular target: T60, 4H2931-bN
T60 chain: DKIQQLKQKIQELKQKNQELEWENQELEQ

[61] = molecular target: T61, 4H2143-bN
T61 chain: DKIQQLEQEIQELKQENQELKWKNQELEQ

[62] = molecular target: T62, 4H3381-bN
T62 chain: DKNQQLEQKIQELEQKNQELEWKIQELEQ

[63] = molecular target: T63, 4H2760-bN
T63 chain: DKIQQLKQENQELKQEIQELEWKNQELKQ

[64] = molecular target: T64, 4H2223-bN
T64 chain: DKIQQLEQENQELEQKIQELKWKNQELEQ

[65] = molecular target: T65, 4H2585-bN
T65 chain: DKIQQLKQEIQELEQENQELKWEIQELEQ

[66] = molecular target: T66, 4H3297-bN
T66 chain: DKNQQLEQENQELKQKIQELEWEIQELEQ

B1: O12-bA (peptide)
chain: DEIAQLEQKIAELKQKNAELKWKNAQLKQ
[1]
  interaction score: -0.478
[2]
  interaction score: -0.795
[3]
  interaction score: -0.225
[4]
  interaction score: -1.51
[5]
  interaction score: 1.04
[6]
  interaction score: 0.0711
[7]
  interaction score: 0.643
[8]
  interaction score: -0.435
[9]
  interaction score: -0.372
[10]
  interaction score: 1.31
[11]
  interaction score: 1.27
[12]
  interaction score: -0.511
[13]
  interaction score: -0.73

B2: O11-bA (peptide)
chain: DKIAQLKQEIAELEQENAELEWENAQLEQ
[1]
  interaction score: -1.12
[14]
  interaction score: -0.526
[2]
  interaction score: -0.637
[3]
  interaction score: -0.971
[4]
  interaction score: 2.25
[5]
  interaction score: -0.659
[6]
  interaction score: -1.31
[7]
  interaction score: -0.9
[8]
  interaction score: -0.951
[9]
  interaction score: -0.686
[10]
  interaction score: -0.525
[11]
  interaction score: 2.16
[12]
  interaction score: -0.78
[13]
  interaction score: -0.988

B3: P1A (peptide)
chain: DEIQALEEENAQLEQENAALEEEIAQLEY
[15]
  interaction score: -1.69
[16]
  interaction score: -1.68
[17]
  interaction score: -2.1
[18]
  interaction score: -0.87
[19]
  interaction score: -1.31
[20]
  interaction score: -1
[21]
  interaction score: -1.54
[22]
  interaction score: 2.6
[23]
  interaction score: -1.11

B4: 4H2143-bN (peptide)
chain: DKIQQLEQEIQELKQENQELKWKNQELEQ
[24]
  interaction score: -0.0822
[25]
  interaction score: -2.78
[26]
  interaction score: -1.88
[27]
  interaction score: -0.266
[28]
  interaction score: -1.37
[29]
  interaction score: 0.299
[30]
  interaction score: -1.38
[31]
  interaction score: 0.125
[32]
  interaction score: -0.596
[33]
  interaction score: -0.0339
[34]
  interaction score: -0.973
[35]
  interaction score: 0.173
[36]
  interaction score: 0.267
[37]
  interaction score: -0.46
[38]
  interaction score: 0.217
[39]
  interaction score: -0.374
[40]
  interaction score: -0.413
[41]
  interaction score: 0.354
[42]
  interaction score: -0.438
[43]
  interaction score: 0.188
[44]
  interaction score: 0.598
[45]
  interaction score: 0.129
[46]
  interaction score: 0.196
[47]
  interaction score: -0.382
[48]
  interaction score: 0.137
[49]
  interaction score: -1.29
[50]
  interaction score: 0.442
[51]
  interaction score: -0.0625
[52]
  interaction score: -0.303
[53]
  interaction score: -0.465
[54]
  interaction score: 0.491
[55]
  interaction score: -0.424
[56]
  interaction score: -0.295
[57]
  interaction score: -0.695
[58]
  interaction score: -0.319
[59]
  interaction score: -0.462
[60]
  interaction score: -0.53
[61]
  interaction score: 0.45
[62]
  interaction score: -0.161
[63]
  interaction score: -0.843
[64]
  interaction score: -0.138
[65]
  interaction score: -1.01
[66]
  interaction score: -0.664
